Measured values taken from US20250002586A1 (CDR LIFE, published 2025).
Numbering of substitutions follows the chain as printed.

B1: CDR-1 (bispecific antibody)
heavy: EVQLVESGGGSVQPGGSLRLSCAASGFTFSTYAMNWVRQAPGKGLEWVGRIRSKANNYATYYADSVKGRFTISRDDSKNTLYLQMNSLRAEDTATYYCVRHGNFGDSYVSWFAYWGQGTTVTVSSASTKGPSVFPLAPSSKSTSGGTAALGCLVKDYFPEPVTVSWNSGALTSGVHTFPAVLQSSGLYSLSSVVTVPSSSLGTQTYICNVNHKPSNTKVDKRVEPKSC
light: EVQLVESGGGLAQAGGSLRVSCVASGRPFTKYAWGWFRQAPGKAREFVATITWDGGKTDYADSVKGRFTISKDSAENSIYLQMNSLKPEDTAVYYCAADRNYCVGHRCYVRPDDYDYWGQGTQVTVSSGGGGSAVVTQEPSLTVSPGGTVTLTCGSSTGAVTTSNYANWVQQKPGKSPRGLIGGTNKRAPGVPARFSGSLLGGKAALTISGAQPEDEADYYCALWYSNHWVFGGGTKLTVLGTVAAPSVFIFPPSDEQLKSGTASVVCLLNNFYPREAKVQWKVDNALQSGNSQESVTEQDSKDSTYSLSSTLTLSKADYEKHKVYACEVTHQGLSSPVTKSFNRGEC
notes: no Fc; also called Format #1; monovalent Fab-VHH HLA-A2/MAGE-A4 x CD3 bispecific
B2: CDR-2 (bispecific antibody)
heavy: B1 heavy
light: AVVTQEPSLTVSPGGTVTLTCGSSTGAVTTSNYANWVQQKPGKSPRGLIGGTNKRAPGVPARFSGSLLGGKAALTISGAQPEDEADYYCALWYSNHWVFGGGTKLTVLGTVAAPSVFIFPPSDEQLKSGTASVVCLLNNFYPREAKVQWKVDNALQSGNSQESVTEQDSKDSTYSLSSTLTLSKADYEKHKVYACEVTHQGLSSPVTKSFNRGECGGGGSEVQLVESGGGLAQAGGSLRVSCVASGRPFTKYAWGWFRQAPGKAREFVATITWDGGKTDYADSVKGRFTISKDSAENSIYLQMNSLKPEDTAVYYCAADRNYCVGHRCYVRPDDYDYWGQGTQVTVSS
notes: no Fc; also called Format #2; monovalent Fab-VHH HLA-A2/MAGE-A4 x CD3 bispecific
B3: CDR-3 (bispecific antibody)
heavy: EVQLVESGGGSVQPGGSLRLSCAASGFTFSTYAMNWVRQAPGKGLEWVGRIRSKANNYATYYADSVKGRFTISRDDSKNTLYLQMNSLRAEDTATYYCVRHGNFGDSYVSWFAYWGQGTTVTVSSASTKGPSVFPLAPSSKSTSGGTAALGCLVKDYFPEPVTVSWNSGALTSGVHTFPAVLQSSGLYSLSSVVTVPSSSLGTQTYICNVNHKPSNTKVDKRVEPKSCGGGGSEVQLVESGGGLAQAGGSLRVSCVASGRPFTKYAWGWFRQAPGKAREFVATITWDGGKTDYADSVKGRFTISKDSAENSIYLQMNSLKPEDTAVYYCAADRNYCVGHRCYVRPDDYDYWGQGTQVTVSS
light: AVVTQEPSLTVSPGGTVTLTCGSSTGAVTTSNYANWVQQKPGKSPRGLIGGTNKRAPGVPARFSGSLLGGKAALTISGAQPEDEADYYCALWYSNHWVFGGGTKLTVLGTVAAPSVFIFPPSDEQLKSGTASVVCLLNNFYPREAKVQWKVDNALQSGNSQESVTEQDSKDSTYSLSSTLTLSKADYEKHKVYACEVTHQGLSSPVTKSFNRGEC
notes: no Fc; also called Format #3; monovalent Fab-VHH
B4: CDR-4 (bispecific antibody)
heavy: EVQLVESGGGLAQAGGSLRVSCVASGRPFTKYAWGWFRQAPGKAREFVATITWDGGKTDYADSVKGRFTISKDSAENSIYLQMNSLKPEDTAVYYCAADRNYCVGHRCYVRPDDYDYWGQGTQVTVSSGGGGSEVQLVESGGGSVQPGGSLRLSCAASGFTFSTYAMNWVRQAPGKGLEWVGRIRSKANNYATYYADSVKGRFTISRDDSKNTLYLQMNSLRAEDTATYYCVRHGNFGDSYVSWFAYWGQGTTVTVSSASTKGPSVFPLAPSSKSTSGGTAALGCLVKDYFPEPVTVSWNSGALTSGVHTFPAVLQSSGLYSLSSVVTVPSSSLGTQTYICNVNHKPSNTKVDKRVEPKSC
light: B3 light
notes: no Fc; also called Format #4; monovalent Fab-VHH HLA-A2/MAGE-A4 x CD3 bispecific
B5: CDR-5 (bispecific antibody)
heavy: B3 heavy
light: B1 light
B6: CDR-6 (bispecific antibody)
heavy: B3 heavy
light: B2 light
B7: CDR-15 (bispecific antibody)
heavy: EVQLVESGGGLVQPGGSLRLSCAASGFTFSTYAMNWVRQAPGKGLEWVGRIRSKYNNYATYYADSVKGRFTISRDDSKNTLYLQMNSLRAEDTAVYYCVRHGNFGDSYVSWFAYWGQGTLVTVSSASTKGPSVFPLAPSSKSTSGGTAALGCLVKDYFPEPVTVSWNSGALTSGVHTFPAVLQSSGLYSLSSVVTVPSSSLGTQTYICNVNHKPSNTKVDKRVEPKSCGGGGSSYELTQPPSVSVSPGQTASITCTADTLSRSYASWYQQKPGQSPVLVIYRDTSRPSGIPERFSGSNSGNTATLTISGTQAMDEADYYCATSDGSGSNFQLFGGGTKLTVLGGGGGGSGGGGSGGGGSGGGGSESQVLESGGGSVQPGGSLRLSCTVSGFSLSNYAMSWVRQAPGKGLEYIGIVSSGGTTYYASWAKGRFTISKDTSKNTVYLQMNSLRAEDTASYYCAKDLYYGPTTQSAFNLWGQGTSVTVSS
light: QAVVTQEPSLTVSPGGTVTLTCGSSTGAVTTSNYANWVQQKPGKSPRGLIGGTNKRAPGVPARFSGSLLGGKAALTISGAQPEDEADYYCALWYSNHWVFGGGTKLTVLGQPKAAPSVTLFPPSSEELQANKATLVCLISDFYPGAVTVAWKADSSPVKAGVETTTPSKQSNNKYAASSYLSLTPEQWKSHRSYSCQVTHEGSTVEKTVAPTECSGGGGSSYELTQPPSVSVSPGQTASITCTADTLSRSYASWYQQKPGQSPVLVIYRDTSRPSGIPERFSGSNSGNTATLTISGTQAMDEADYYCATSDGSGSNFQLFGGGTKLTVLGGGGGGSGGGGSGGGGSGGGGSESQVLESGGGSVQPGGSLRLSCTVSGFSLSNYAMSWVRQAPGKGLEYIGIVSSGGTTYYASWAKGRFTISKDTSKNTVYLQMNSLRAEDTASYYCAKDLYYGPTTQSAFNLWGQGTSVTVSS
B8: CDR-8 (bispecific antibody)
heavy: B7 heavy with S323R, D324P, G325S, Q470Y
light: B7 light with S310R, D311P, G312S, Q457Y
notes: no Fc; also called dual pMHC TCE; dual pMHC-targeting T cell engager in Fab-(scFv)2 format
B9: CDR-10 (bispecific antibody)
heavy: EVQLVESGGGLVQPGGSLRLSCAASGFTFSTYAMNWVRQAPGKGLEWVGRIRSKYNNYATYYADSVKGRFTISRDDSKNTLYLQMNSLRAEDTAVYYCVRHGNFGDSYVSWFAYWGQGTLVTVSSASTKGPSVFPLAPSSKSTSGGTAALGCLVKDYFPEPVTVSWNSGALTSGVHTFPAVLQSSGLYSLSSVVTVPSSSLGTQTYICNVNHKPSNTKVDKRVEPKSCGGGGSEVQLVESGGGLVQPGGSLRLSCVASGRPFTKYAWGWFRQAPGKAREFVATITWDGGKTDYADSVKGRFTISKDSAKNSIYLQMNSLRAEDTAVYYCAADRNYCVGHRCYVRPDDYDYWGQGTLVTVSS
light: QAVVTQEPSLTVSPGGTVTLTCGSSTGAVTTSNYANWVQQKPGKSPRGLIGGTNKRAPGVPARFSGSLLGGKAALTISGAQPEDEADYYCALWYSNHWVFGGGTKLTVLGTVAAPSVFIFPPSDEQLKSGTASVVCLLNNFYPREAKVQWKVDNALQSGNSQESVTEQDSKDSTYSLSSTLTLSKADYEKHKVYACEVTHQGLSSPVTKSFNRGECGGGGSEVQLVESGGGLVQPGGSLRLSCVASGRPFTKYAWGWFRQAPGKAREFVATITWDGGKTDYADSVKGRFTISKDSAKNSIYLQMNSLRAEDTAVYYCAADRNYCVGHRCYVRPDDYDYWGQGTLVTVSS
notes: no Fc
B10: CDR-11 (bispecific antibody)
heavy: B9 heavy with D106N
light: B9 light with G23R, K44Q, S45A
notes: no Fc
B11: CDR-9 (bispecific antibody)
heavy: B9 heavy with Y55A
light: QAVVTQEPSLTVSPGGTVTLTCGSSTGAVTTSNYANWVQQKPGKSPRGLIGGTNKRAPGVPARFSGSLLGGKAALTISGAQPEDEADYYCALWYSNHWVFGGGTKLTVLGTVAAPSVFIFPPSDEQLKSGTASVVCLLNNFYPREAKVQWKVDNALQSGNSQESVTEQDSKDSTYSLSSTLTLSKADYEKHKVYACEVTHQGLSSPVTKSFNRGECGGGGSEVQLVESGGGLVQPGGSLRLSCVASGRPFTKYAWGWFRQAPGKAREFVATITWDGGKTDYADSVKGRFTISKDSAKNSIYLQMNSLRAEDTAVYYCAADRNYCVGHRCYVRPDDYDYWGQGTLVTVS
notes: no Fc

The binders below were run against T1, MAGE-A4 peptide … presented by HLA-A*02:01 on cells (human) (assay: cell-based or functional assay).
With B1 the “U20S cell killing, IC50” value was 0.1 nM. In the case of B2, the “U20S cell killing, IC50” value is reported as 0.18 nM. B3 was tested, and the “U20S cell killing, IC50” value was 0.24 nM. B4 was tested, and the “U20S cell killing, IC50” value was 0.5 nM.

Molecular target: T1, MAGE-A4 peptide … presented by …
Assay: cell-based or functional assay
Remark: another data set of the same source
With B5 the “U20S cell killing, IC50” value was 0.01 nM. In the case of B6, the “U20S cell killing, IC50” value is reported as 0.02 nM.

Each binder was assayed against T2, HLA-A*02:01 in complex with the MAGE-A4 peptide … (human) (assay: SPR, HLA-A*02:01/MAGE-A4 complex on streptavidin chip; measured in monovalent format).
T2 construct: Recombinant complex as immobilised (500 RU) for SPR; also called HLA-A2/MAGE-A4 complex; pMHC-MAGE-A4 antigen
Method: (§1) Affinity characterization of HLA-A2/MAGE-A4×CD3 bispecific antibodies was performed by surface plasmon resonance (SPR). All experiments were conducted using a Biacore™ T200 Device (Cytiva). To determine the kinetic parameters of the binding of the bispecific antibodies to the HLA-A2/MAGE-A4 complex, a streptavidin chip (SAHC30M, XanTec) was coated according to the manufacturer's instructions with 500 RU HLA-A*02:01 in complex with the MAGE-A4 peptide. The resulting affinities presented herein correspond to the measurements performed with the respective monovalent antigen binding proteins. […] Uncoated channels were used for referencing. Data fitting was performed using a 1:1 Langmuir model.
Binder B7 has a Kd of 41 nM. B8 showed a Kd of 0.1 nM.

What follows are binders tested against CD3 heterodimer (Acro Biosystems) (UniProt P07766 23-126) (assay: SPR (Biacore T200), CD3 heterodimer on HC30M chip, 1:1 Langmuir fit).
Chain of CD3 heterodimer (Acro Biosystems) (P07766 23-126, one chain of several): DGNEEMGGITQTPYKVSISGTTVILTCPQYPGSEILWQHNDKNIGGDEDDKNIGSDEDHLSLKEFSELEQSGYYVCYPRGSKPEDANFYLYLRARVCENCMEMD
With B9 the Kd was 11 nM. Binder B10 has a Kd of 1.2 nM. Binder B11 has a Kd of 54 nM.

The binders below were run against T2, HLA-A*02:01 in complex with the MAGE-A4 … (assay: SPR (Biacore T200), HLA-A*02:01/MAGE-A4 peptide complex on streptavidin chip, 1:1 Langmuir fit).
Method: as §1
B1 showed a Kd of 1.5 nM. B2 showed a Kd of 2.6 nM. B3 was tested, and the Kd was 1.9 nM. B4 gave a Kd of 1.3 nM.
